The values below come from patent US20230348573A1 (KEIO UNIVERSITY, published 2023).

Broadly, the Kd is the equilibrium constant for the complex coming apart.

Sequences and labels used below:
B1: Ab188 (antibody, V domains shown)
VH: EVQLVESGGGLVQPGGSLRLSCAASGFTFINYKMNWVRQAPGKGLEWVSYISSGSDAIYYADSVKGRFTISRDNAKNSLYLQMNSLRDEDTALYYCARGGGYNYGECMDVWGQGTTVTVSS
VL: not shown
B2: Ab159 (antibody, V domains shown)
VH: QVQLVESGGGLVKPGGSLRLSCAASGFTFNNAWMSWVRQAPGKGLEWVGRIKSKTDGGTTDYAAPVKGRFTFSRDDSKNTLYLQMSSLKTEDTALYYCTTADYDILTGTPASPYWGQGTLVTVSS
VL: DIQMTQSPSSLSASVGDRVTITCRASQSITNYLNWYQQKPGKAPKFLIYAASSLQGGVPSRFRGSGSGTDFTLTISSLQPEDFATYYCQQTYSTLWTFGQGTKVEIK
B3: Ab847 (antibody, V domains shown)
VH: EVQLVQSGAEVKKPGASVKVSCKASGYTFTSYDIIWVRQATGQGLEWMGWMDPSRGTTGYAQTFQGRVTMTRDTSISTAYLELNSLTSEDTAVYYCVAHIVVLDRWFDPWGQGTLVTVSS
VL: DIVMTQSPSSLSASVGDRVTITCQASQDIGNFLNWCQQKPGQAPKVLIYGASNLETGVPSRFSGSGSGTDFTFTISSLQPEDIATYYCQHYDNFPPRFTFGQGTKLDIK
B4: Ab864 (antibody, V domains shown)
VH: EVQLVESGGGLVQPGRSLRLSCAASGFTFDDYAMHWVRQVPGKGLEWVSGISWNKGNIDYADSVKGRFTISRDNAKNSLYLQMNSLRPEDTGLYYCAKDCHYDSPGYFPNCLHSWGQGTLVTVSS
VL: EIVMTQSPSSLSASVGDRVTITCRASQGINTYLAWYQQKPGKAPKLLIYTASTLQSGVPSRFSGSGSGTDFTLTISSLQPEDFATYYCQQVHSYPLTFGGGTKVEIK
B5: Ab830 (antibody, V domains shown)
VH: QVQLVQSGAEVKKPGSSVKVSCKTSGGTFTNYTISWVRQAPGQGLEWMGRIIPIFDIVNYAQKFQGRVTITADKSTSTTYMELSSLRSEDTAVYYCARDGVLYDTSGYLYDAFDIWGQGTMVTVSS
VL: DIQMTQSPSSLSASVGDRVTITCRASQGINNYLAWFQQKPGKAPKSLIYAASSLQSGVPPKFSGSGSGTDFTLTISSLQPEDFATYYCLHYNSYPWTFGQGTKVEIK
B6: Ab496 (antibody, V domains shown)
VH: EVQLVQSGPEVKKPGTSVKVSCKASGFIFTNSAVQWVRQARGQRLEWIGWIVVGSGNPNYAQKFQERVTITRDRSTSTAYMELSSLTSEDTAVYYCAAFPYYYDNSGSGPWGQGTLVTVSS
VL: DIQLTQSPSSLSASVGDRVTITCQASQDIRNNLNWYQQIPGKAPKLLIYDASNLETGVPSRFSGSASGTDFTFTISSLQPEDVATYYCQQYANLPPFTFGPGTKVDIK
B7: Ab445 (antibody, V domains shown)
VH: EVQLVESGGGVVQPGTSPRLSCAASGFTFSNSGMHWVRQAPGKGLEWVAVIWYDGSKKYYVDSVKGRFTISRDNSKNTLYLQMNSLRAEDTAVYYCARDGTVAVRGVMNPFFDYWGQGTLVTVSS
VL: DIQLTQSPSSLSASVGDRVTITCQASQDISNYLNWYQQIPGKAPKLLIYDASNLETGVPSRFSGSGSGTDFTFTISSLQPEDIATYYCQQYDNLPYTFGQGTKLEIK
B8: Ab369 (antibody, V domains shown)
VH: QVQLVQSGAEVKKPGASVKVSCKASGYTLTNRAIHWVRQAPGQRLEWMGWINAGKGNTKYSQKFQGRVTITRDTSASTAYMELSSLKSEDTAFYYCATGDGYNYGYDSWGQGTLVTVSS
VL: NFMLTQPPSVSVAPGKTARISCGGTNIGSKSVHWYQQKPGQAPVLVVHDDSDRPSGIPERFSASNSGNTATLTISRVEAGDEADYYCQVWDSTSDLPEVVFGGGTKLTVL
B9: Ab336 (antibody, V domains shown)
VH: QVQLQQSGPGLVKPSETLSLTCTVSGGSISSYYWTWIRQPPGKGLEWIAYISYSGSTNYNPSLRSRVTISVDTSKNQFSLKLSSVTAADTAVYYCARDYYYDNSGYPDSYYGMDVWGQGTTVTVSS
VL: DIQLTQSPSTLSASVGDRVTITCRASQRISSWLAWYQQKPGKAPKLLIYKASTLQSGVPSRFSGSGSGTEFTLTISSLQPDDFATYYCQQYNSFSWTFGQGTKVEIK
B10: Ab376 (antibody, V domains shown)
VH: EVQLVESGGGLVQPGGSLRLSCEASEFTLNSHYMNWVRQAPGKGLEWVSVIYSSGSTYYADSVKGRFTISRHNSKDTLYLQMNSLKPEDTAVYYCARPNYGGNSIWYFDLWGRGTLVTVSS
VL: DIQMTQSPSSVSASVGDRVTITCRASQGIGSWLAWYQQTPGKAPKLLIYAASSLQSGVPSRFSGSGSGTDFTLTISSLQPEDFATYYCQQANSFPLTFGGGTKVEIK
B11: Ab287 (antibody, V domains shown)
VH: QVQLVQSGAEVKKPGSSVKVSCKASGDTFSSYAISWVRQAPGQGLEWMGRIILIFGVANYAQKFQGRVTITADKSTSTAYMELSSLRSEDTAVYYCARGGFYYDSSGYHLDYWGQGTLVTVSS
VL: EIVLTQSPGTLSLSPGERATLSCRPSQSVSSSYLAWYQQRPGQAPRLLIYGASSRATGIPDRFSGSGSGTDFTLTISRLEPEDFAVYYCHQYGSSPRTFGQGTKVEIK

The first assay deals with spike protein of SARS-CoV-2 (Wuhan strain) on pseudovirus (SARS-CoV-2 (Wuhan strain), UniProt P0DTC2 14-1254). As to the kind of experiment: cell-based or functional assay.
Turning to B1, the “IC50 of pseudovirus infection (luciferase)” value was 119 ng/mL.
The same measure, in the same setting: for B2 the value was 8.52 ng/mL; for B3, 40.3 ng/mL; for B4, 8.4 ng/mL.
Take B5: the “IC50 of pseudovirus infection (luciferase)” value worked out at 34.9 ng/mL.
Same read-out and setting: the figure for B6 is 3.62 ng/mL.

For another assay, the target named is T1, RBD derived from SARS-CoV-2 (Wuhan strain) (SARS-CoV-2 (Wuhan strain), UniProt P0DTC2 319-541).
T1 construct: domain: RBD
As to the kind of experiment: BLI (Octet), RBD of the Wuhan strain.
B2 came in with a Kd of 1.24 nM. This counts as single-digit nanomolar.
The molecule B7 displayed a Kd of 0.0593 nM.
Regarding B4, the affinity, expressed as Kd, was 3.9 nM.
On the same count and under the same terms, the figure for B8 is 0.197 nM; for B9 it is 2.35 nM.
B10 displayed a Kd of 0.11 nM.

In the next assay the target is T2, full-length spike protein of SARS-CoV-2 (Wuhan strain) (SARS-CoV-2 (Wuhan strain), UniProt P0DTC2 14-1273).
T2 construct: whole, on cells; Expressed in 293T cells
As to the kind of experiment: ACE2 competition, 293T cells, antibody 4 µg/mL.
Turning to B1, the “ACE2 binding (no antibody = 100)” value stood at 2.1.
On the same count and under the same terms, the figure for B7 is 0.4; for B9 it is 1; for B6 it is 1.8.
Consider B11, for which the “ACE2 binding (no antibody = 100)” value was 0.5.

A further assay deals with T2, full-length spike protein of SARS-CoV-2 …. As to the kind of experiment: ACE2 competition, spike on 293T cells, antibody 4 µg/mL.
Regarding B1, the “binding amount (%) of ACE2 protein” value was found to be 1.1%.
Same read-out and setting: the figure for B2 is 0.5%.
In the case of B7, the “binding amount (%) of ACE2 protein” value amounted to 0.4%.
The same measure, in the same setting: for B3 the value was 0.3%; for B4, 0.4%.
For B8, the “binding amount (%) of ACE2 protein” value is 4.1%.
On the same count and under the same terms, for B5 the value was 0.9%.
Regarding B9, the “binding amount (%) of ACE2 protein” value came out at 5.3%.
As to B10, the “binding amount (%) of ACE2 protein” value was 5.1%.
Take B6: the “binding amount (%) of ACE2 protein” value is 1.8%.
As for B11, the “binding amount (%) of ACE2 protein” value worked out at 1.5%.

The target in a further assay is T1, RBD derived from SARS-CoV-2 (Wuhan …). As to the kind of experiment: RBD beads, antibody 1 µg/mL, then labelled ACE2, flow cytometry. A general note: In flow cytometry, cells or beads pass a laser one at a time.
For the molecule B2, the “fluorescence of ACE2 protein” value stood at 114.
B7: the “fluorescence of ACE2 protein” value amounted to 326.
Same read-out and setting: for B8 the value was 430; for B9, 402; for B10, 134.
With B6, the “fluorescence of ACE2 protein” value came out at 129.
As to B11, the “fluorescence of ACE2 protein” value worked out at 105.

Another assay has the same target. The assay can be described thus: RBD beads, antibody 4 µg/mL, then labelled ACE2, flow cytometry.
Turning to B1, the “fluorescence of ACE2 protein” value was found to be 148.
Turning to B2, the “fluorescence of ACE2 protein” value was found to be 78.3.
For the molecule B7, the “fluorescence of ACE2 protein” value came out at 142.
On the same count and under the same terms, the figure for B8 is 107.
The same measure, in the same setting: the figure for B9 is 106; for B10 it is 45; for B6 it is 41.7.
On the same count and under the same terms, the figure for B11 is 32.6.

The next assay shares this target. As to the kind of experiment: RBD beads, antibody 0.25 µg/mL, then labelled ACE2, flow cytometry.
In the case of B1, the “fluorescence of ACE2 protein” value was determined as 1570.
Still for that read-out and setting: the figure for B2 is 486; for B7 it is 2200; for B8 it is 1640.
The same measure, in the same setting: the figure for B9 is 1110.
On the same count and under the same terms, the figure for B10 is 445; for B6 it is 2580.
Take B11: the “fluorescence of ACE2 protein” value came to 689.
